Source: patent US20250145697A1 (WASHINGTON UNIVERSITY, published 2025)

Legend:
murine ApoE = target: T1, murine ApoE (mouse, UniProt P08226 19-311); test: Western blot of mouse brain lysates
T1 sequence (looked up): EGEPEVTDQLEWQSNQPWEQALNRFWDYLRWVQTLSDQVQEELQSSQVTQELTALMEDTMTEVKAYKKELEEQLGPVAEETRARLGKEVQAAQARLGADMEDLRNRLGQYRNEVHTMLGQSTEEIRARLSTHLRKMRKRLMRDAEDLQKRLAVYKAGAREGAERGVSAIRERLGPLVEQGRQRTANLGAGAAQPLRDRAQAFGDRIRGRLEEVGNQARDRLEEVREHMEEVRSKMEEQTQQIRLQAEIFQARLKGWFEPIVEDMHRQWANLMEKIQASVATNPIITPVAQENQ
Text: Brain lysates from apoE KO mice or mice expressing human apoE3, human apoE4 or murine apoE were immunoblotted with HJ151, HJ152, HJ153, and HJ154. A commercial apoE antibody GA-50 was used as a positive control.

[1] = target: T2, recombinant alipidated human ApoE4 (human, UniProt P02649 19-317); test: direct ELISA on coated recombinant alipidated ApoE (0.5 ug/ml)
T2 construct: mature; full length recombinant protein made in E. coli or bought; biotinylated for SPR; position 112 is counted on the mature protein, not on the precursor entry; also called recApoE; non-lipidated ApoE4
T2 sequence (P02649 19-317 C130R): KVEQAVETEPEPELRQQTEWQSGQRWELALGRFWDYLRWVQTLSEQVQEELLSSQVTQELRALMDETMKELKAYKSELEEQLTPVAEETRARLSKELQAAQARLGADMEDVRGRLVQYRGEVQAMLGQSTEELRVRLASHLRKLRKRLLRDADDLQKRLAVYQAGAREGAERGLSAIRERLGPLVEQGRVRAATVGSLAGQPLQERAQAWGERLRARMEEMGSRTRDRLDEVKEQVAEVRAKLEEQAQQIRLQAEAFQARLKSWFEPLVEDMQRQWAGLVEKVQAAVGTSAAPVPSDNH
Procedure: (§1) ELISA dose response curves were generated for several anti-ApoE antibodies. Briefly, plates were coated overnight with full length recombinant alipidated ApoE2, ApoE3, or ApoE4 (0.5 μg/ml). The following days, plates were washed, blocked and then incubated with an anti-ApoE antibody. A goat, anti-mouse IgG-HRP antibody was used for secondary detection. Recombinant alipidated ApoE was either expressed solubly in E. coli and then purified, or purchased from a commercial supplier.

[2] = target: T3, recombinant alipidated human ApoE3 (human, UniProt P02649 19-317); test: as above
T3 construct: mature; full length recombinant protein made in E. coli or bought
T3 sequence (P02649 19-317): as the sequence (P02649 19-317 C130R) above, with R112C counted along it
Procedure: as §1

[3] = target: T4, recombinant alipidated human ApoE2 (human, UniProt P02649 19-317); test: as above
T4 construct: mature; full length recombinant protein made in E. coli or bought
T4 sequence (P02649 19-317 R176C): as the sequence (P02649 19-317 C130R) above, with R112C, R158C counted along it
Procedure: as §1

[4] = target: T2, recombinant alipidated human ApoE4; test: ELISA: untreated recombinant ApoE4 on the plate, antibody titrated, OD650
Procedure: (§2) 1: untreated ApoE4. 2: ApoE4 that has been incubated at 40° C. for 24 hr. Supernatant(S) and pellet (P) from ultracentrifugation were resolved on SDS-PAGE and stained by Coomassie blue. (D) Binding of HJ156 to different preparations of ApoE4 loaded at the same concentration on the ELISA plate. Sup of untreated: Supernatant fraction of untreated ApoE4 from ultracentrifugation. Sup/Pel of 24h 40C: Supernatant/pellet fraction of ApoE4 incubated at 40° C. for 24 hour. (E) Binding of HJ156 to untreated and 40° C. incubated ApoE4 with and without denaturation by 1% SDS or 4M guanidine HCl.
(§3) In order to test whether HJ151 and HJ156 bind to some form of ApoE in the brain, unfixed frozen brain sections from APPPS1/APOE4 or APPPS1/EKO mice using HJ151 and HJ156 (FIG. 38A). The presence of Aβ plaques was confirmed with Aβ immunostaining using anti-Aβ antibody HJ3.4 on the sections from the same brain. […] Next, the ability of HJ156 to bind to an aggregated form of ApoE induced by incubation at 40° C. was queried. The binding of untreated ApoE to HJ151, HJ153 or HJ156 was compared to the binding of ApoE incubated at 40° C. to HJ151, HJ153 or HJ156. HJ153 bound to untreated ApoE or ApoE incubated at 40° C. similarly while HJ151 and HJ156 preferentially bound to ApoE incubated at 40° C. (FIG. 38B). […] Solubilization of the ApoE aggregates reduced their binding to HJ156. […]

[5] = target: T5, heat-induced aggregates of ApoE4 (human, UniProt P02649 19-317); test: ELISA: ApoE4 incubated at 40 C for 24 hr on the plate, antibody titrated, OD650
T5 construct: mature; aggregated state of the recombinant protein; also called ApoE4 incubated at 40 C for 24 hr; heat-treated ApoE4
T5 sequence (P02649 19-317 C130R): as the sequence (P02649 19-317 C130R) above
Procedure: as §2, §3

[6] = target: T2, recombinant alipidated human ApoE4; test: SPR, biotinylated recombinant apoE4 captured on a streptavidin chip; column Kd (1/s)
Procedure: (§4) ELISA plates were coated with 0.5 μg/ml of recombinant apoE2 (square), apoE3 (open circle), or apoE4 (closed circle). Then different concentrations of (A) HJ151, (B) HJ153, (C) HJ154, or (D) HJ156 were loaded on the plates. Horse-radish peroxidase labeled goat anti-mouse secondary antibodies were used to detect binding. […] HJ151 is specific for ApoE4 and HJ156 binds only ApoE3 and ApoE4. FIG. 5E-H are graphs depicting surface plasmon resonance profiles for various antibodies. Anti-ApoE antibodies were serially diluted 3-fold (starting at 100 nM for HJ153 (E), and 1000 nM for HJ151 (F), and […] (G)) for detection of binding to biotinylated-recombinant apoE4 captured on a streptavidin chip. Samples were injected at a flow rate of 30 μl/minute. (H) Apparent KD values of HJ151, HJ153 and HJ156 were calculated based on the SPR experiment.
(§5) ELISA plates were coated with 0.5 μg/ml of recombinant apoE2, apoE3, or apoE4. Then different concentrations of HJ151 (FIG. 5A), HJ153 (FIG. 5B), HJ154 (FIG. 5C), or HJ156 (FIG. 5D) were loaded on the plates. Horse-radish peroxidase labeled goat anti-mouse secondary antibodies were used to detect binding. […] HJ151 is specific for ApoE4 and HJ156 binds only ApoE3 and ApoE4. Surface plasmon resonance profiles for various antibodies was also performed.

[7] = target: T2, recombinant alipidated human ApoE4; test: SPR, biotinylated recombinant apoE4 captured on a streptavidin chip; column Ka (1/Ms)
Procedure: as §4, §5

[8] = target: T2, recombinant alipidated human ApoE4; test: SPR, biotinylated recombinant apoE4 captured on a streptavidin chip; column Apparent KD (M)
Procedure: as §4, §5

[9] = target: T2, recombinant alipidated human ApoE4; test: SPR (Biacore T200), biotinylated ApoE4 captured on anti-biotin mAb chip, antibody injected, 1:1 fit
Procedure: The affinity of several anti-ApoE antibodies for ApoE4 was determined by surface plasmon resonance using a BIAcore T200. Anti-biotin monoclonal mouse antibody was immobilized on a Biacore Series S CM5 sensor chip. Biotinylated recombinant alipidated ApoE4 was then captured on to the chip. Serial dilutions of each antibody were injected at a flow rate of 30 μl/min. Each sample was analyzed, for example, with 3-minute association and 10-minute dissociation. After each injection the chip was regenerated using 3 M MgCl₂ or another appropriate buffer. Binding response was corrected by subtracting the response units (RUs) from a flow cell capturing an irrelevant IgG at similar density. A 1:1 Languir model of simultaneous fitting of Kₒₙ and Koff was used for kinetics analysis. Recombinant alipidated ApoE4 was either expressed in soluble form in E. coli and then purified, or purchased from a commercial supplier.

B1: HJ153 (antibody, V domains shown)
VH: QVQLQQPGAELVKPGASVKLSCKASGYTFTSYWMHWVKQRPGRGLEWIGEIDPSDGFTYNNQNFKDKSTLTVDRSSGTAYLQLSSLTSEDSAVYYCAGSLGRIGLAYWGHGTLVTVSA
VL: QIVLTQSPAIMSASPGEKVTISCSASSSVTYMYWYQQKPGASPKSWIYRTSNLASGVPARFSGSGSGTSYSLTISSMEAEDAATYYCQQFQSYPLTFGAGTKLELKR
notes: murine monoclonal antibody from hybridoma; also called HJ153B (biotinylated)
With B1 the binding result (murine ApoE) was “no binding”, the EC50 [1] was 0.03 nM and the EC50 [2] was 0.02 nM. For the same binder, the EC50 [3] was 0.02 nM, the “EC50 (read off the curve)” value [4] was roughly 0.3 nM and the “EC50 (read off the curve)” value [5] was roughly 0.2 nM. The koff [6] was 0.000211 s⁻¹, the kon [7] was 662000 M⁻¹ s⁻¹ and the Kd [8] was 0.319 nM. The Kd [9] was 0.43 nM, the koff [9] was 0.000346 s⁻¹ and the kon [9] was 804000 M⁻¹ s⁻¹.
